Results taken from patent publication US20230158141A1 (YAFEI SHANGHAI BIOLOG MEDICINE SCIENCE AND TECHNOLOGY, published 2023).

Assays:
[1] = target: CTLA-4 (UniProt P16410 36-162, limits assumed); assay: ELISA, OD mutant/OD WT; A=90-110%
[2] = target: T1, PD-1 (UniProt Q15116 25-167, limits assumed); assay: ELISA, OD mutant/OD WT; A=90-110%
[3] = target: T1, PD-1; assay: ELISA, OD mutant/OD WT; B=70-90%

T1 sequence (Q15116 25-167 limits assumed): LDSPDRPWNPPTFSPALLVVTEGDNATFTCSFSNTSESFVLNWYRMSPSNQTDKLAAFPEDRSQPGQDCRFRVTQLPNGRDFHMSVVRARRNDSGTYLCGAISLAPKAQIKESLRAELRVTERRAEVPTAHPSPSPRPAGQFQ
Sequence of CTLA-4 (P16410 36-162 limits assumed): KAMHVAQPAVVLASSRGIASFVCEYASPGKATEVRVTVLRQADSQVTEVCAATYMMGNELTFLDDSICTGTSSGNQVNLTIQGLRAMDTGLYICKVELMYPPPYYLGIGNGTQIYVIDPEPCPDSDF

binding activity (OD after mutation/OD wild type) [1] [%]	binding activity (OD after mutation/OD wild type) [2] [%]	Binder	further results
90 to 110	–	anti-CTLA-4 antibody light chain A25C (antibody, human IgG1, kappa, V domains shown) VH: QVQLVESGGGVVQPGRSLRLSCAASGFTFSSYTMHWVRQAPGKGLEWVTFISYDGNNKYYADSVKGRFTISRDNSKNTLYLQMNSLRAEDTAIYYCARTGWLGPFDYWGQGTLVTVSS VL: not shown	–
90 to 110	–	anti-CTLA-4 antibody light chain T57C (antibody, human IgG1, kappa, V domains shown) VH: QVQLVESGGGVVQPGRSLRLSCAASGFTFSSYTMHWVRQAPGKGLEWVTFISYDGNNKYYADSVKGRFTISRDNSKNTLYLQMNSLRAEDTAIYYCARTGWLGPFDYWGQGTLVTVSS VL: not shown	–
90 to 110	–	anti-CTLA-4 antibody light chain S26C (antibody, human IgG1, kappa, V domains shown, also called CTLA-4-Ser26Cys) VH: QVQLVESGGGVVQPGRSLRLSCAASGFTFSSYTMHWVRQAPGKGLEWVTFISYDGNNKYYADSVKGRFTISRDNSKNTLYLQMNSLRAEDTAIYYCARTGWLGPFDYWGQGTLVTVSS VL: not shown	–
90 to 110	–	anti-CTLA-4 antibody light chain S54C (antibody, human IgG1, kappa, V domains shown) VH: QVQLVESGGGVVQPGRSLRLSCAASGFTFSSYTMHWVRQAPGKGLEWVTFISYDGNNKYYADSVKGRFTISRDNSKNTLYLQMNSLRAEDTAIYYCARTGWLGPFDYWGQGTLVTVSS VL: not shown	–
90 to 110	–	anti-CTLA-4 antibody light chain G30C (antibody, human IgG1, kappa, V domains shown) VH: QVQLVESGGGVVQPGRSLRLSCAASGFTFSSYTMHWVRQAPGKGLEWVTFISYDGNNKYYADSVKGRFTISRDNSKNTLYLQMNSLRAEDTAIYYCARTGWLGPFDYWGQGTLVTVSS VL: not shown	–
90 to 110	–	anti-CTLA-4 antibody light chain S94C (antibody, human IgG1, kappa, V domains shown) VH: QVQLVESGGGVVQPGRSLRLSCAASGFTFSSYTMHWVRQAPGKGLEWVTFISYDGNNKYYADSVKGRFTISRDNSKNTLYLQMNSLRAEDTAIYYCARTGWLGPFDYWGQGTLVTVSS VL: not shown	–
90 to 110	–	anti-CTLA-4 antibody light chain S32C (antibody, human IgG1, kappa, V domains shown) VH: QVQLVESGGGVVQPGRSLRLSCAASGFTFSSYTMHWVRQAPGKGLEWVTFISYDGNNKYYADSVKGRFTISRDNSKNTLYLQMNSLRAEDTAIYYCARTGWLGPFDYWGQGTLVTVSS VL: not shown	–
90 to 110	–	anti-CTLA-4 antibody light chain S31C (antibody, human IgG1, kappa, V domains shown) VH: QVQLVESGGGVVQPGRSLRLSCAASGFTFSSYTMHWVRQAPGKGLEWVTFISYDGNNKYYADSVKGRFTISRDNSKNTLYLQMNSLRAEDTAIYYCARTGWLGPFDYWGQGTLVTVSS VL: not shown	–
90 to 110	–	anti-CTLA-4 antibody light chain G58C (antibody, human IgG1, kappa, V domains shown) VH: QVQLVESGGGVVQPGRSLRLSCAASGFTFSSYTMHWVRQAPGKGLEWVTFISYDGNNKYYADSVKGRFTISRDNSKNTLYLQMNSLRAEDTAIYYCARTGWLGPFDYWGQGTLVTVSS VL: not shown	–
90 to 110	–	anti-CTLA-4 antibody light chain G93C (antibody, human IgG1, kappa, V domains shown) VH: QVQLVESGGGVVQPGRSLRLSCAASGFTFSSYTMHWVRQAPGKGLEWVTFISYDGNNKYYADSVKGRFTISRDNSKNTLYLQMNSLRAEDTAIYYCARTGWLGPFDYWGQGTLVTVSS VL: not shown	–
90 to 110	–	anti-CTLA-4 antibody light chain S28C (antibody, human IgG1, kappa, V domains shown) VH: QVQLVESGGGVVQPGRSLRLSCAASGFTFSSYTMHWVRQAPGKGLEWVTFISYDGNNKYYADSVKGRFTISRDNSKNTLYLQMNSLRAEDTAIYYCARTGWLGPFDYWGQGTLVTVSS VL: not shown	–
90 to 110	–	anti-CTLA-4 antibody light chain S95C (antibody, human IgG1, kappa, V domains shown) VH: QVQLVESGGGVVQPGRSLRLSCAASGFTFSSYTMHWVRQAPGKGLEWVTFISYDGNNKYYADSVKGRFTISRDNSKNTLYLQMNSLRAEDTAIYYCARTGWLGPFDYWGQGTLVTVSS VL: not shown	–
90 to 110	–	anti-CTLA-4 antibody light chain G51C (antibody, human IgG1, kappa, V domains shown) VH: QVQLVESGGGVVQPGRSLRLSCAASGFTFSSYTMHWVRQAPGKGLEWVTFISYDGNNKYYADSVKGRFTISRDNSKNTLYLQMNSLRAEDTAIYYCARTGWLGPFDYWGQGTLVTVSS VL: not shown	–
–	90 to 110	anti-PD-1 antibody 1 heavy chain S54C (antibody, human IgG4 S228P, kappa, V domains shown) VH: QVQLVQSGVEVKKPGASVKVSCKASGYTFTNYYMYWVRQAPGQGLEWMGGINPCNGGTNFNEKFKNRVTLTTDSSTTTAYMELKSLQFDDTAVYYCARRDYRFDMGFDYWGQGTTVTVSS VL: EIVLTQSPATLSLSPGERATLSCRASKGVSTSGYSYLHWYQQKPGQAPRLLIYLASYLESGVPARFSGSGSGTDFTLTISSLEPEDFAVYYCQHSRDLPLTFGGGTKVEIKR	–
–	–	anti-PD-1 antibody 1 light chain A25C (antibody, human IgG4 S228P, kappa, V domains shown) VH: QVQLVQSGVEVKKPGASVKVSCKASGYTFTNYYMYWVRQAPGQGLEWMGGINPSNGGTNFNEKFKNRVTLTTDSSTTTAYMELKSLQFDDTAVYYCARRDYRFDMGFDYWGQGTTVTVSS VL: EIVLTQSPATLSLSPGERATLSCRCSKGVSTSGYSYLHWYQQKPGQAPRLLIYLASYLESGVPARFSGSGSGTDFTLTISSLEPEDFAVYYCQHSRDLPLTFGGGTKVEIKR	binding activity (OD after mutation/OD wild type) [3]: 70 to 90%
–	90 to 110	anti-PD-1 antibody 1 heavy chain T30C (antibody, human IgG4 S228P, kappa, V domains shown) VH: QVQLVQSGVEVKKPGASVKVSCKASGYTFCNYYMYWVRQAPGQGLEWMGGINPSNGGTNFNEKFKNRVTLTTDSSTTTAYMELKSLQFDDTAVYYCARRDYRFDMGFDYWGQGTTVTVSS VL: EIVLTQSPATLSLSPGERATLSCRASKGVSTSGYSYLHWYQQKPGQAPRLLIYLASYLESGVPARFSGSGSGTDFTLTISSLEPEDFAVYYCQHSRDLPLTFGGGTKVEIKR	–
–	–	anti-PD-1 antibody 1 light chain A55C (antibody, human IgG4 S228P, kappa, V domains shown) VH: QVQLVQSGVEVKKPGASVKVSCKASGYTFTNYYMYWVRQAPGQGLEWMGGINPSNGGTNFNEKFKNRVTLTTDSSTTTAYMELKSLQFDDTAVYYCARRDYRFDMGFDYWGQGTTVTVSS VL: EIVLTQSPATLSLSPGERATLSCRASKGVSTSGYSYLHWYQQKPGQAPRLLIYLCSYLESGVPARFSGSGSGTDFTLTISSLEPEDFAVYYCQHSRDLPLTFGGGTKVEIKR	binding activity (OD after mutation/OD wild type) [3]: 70 to 90%
–	90 to 110	anti-PD-1 antibody 1 heavy chain T58C (antibody, human IgG4 S228P, kappa, V domains shown) VH: QVQLVQSGVEVKKPGASVKVSCKASGYTFTNYYMYWVRQAPGQGLEWMGGINPSNGGCNFNEKFKNRVTLTTDSSTTTAYMELKSLQFDDTAVYYCARRDYRFDMGFDYWGQGTTVTVSS VL: EIVLTQSPATLSLSPGERATLSCRASKGVSTSGYSYLHWYQQKPGQAPRLLIYLASYLESGVPARFSGSGSGTDFTLTISSLEPEDFAVYYCQHSRDLPLTFGGGTKVEIKR	–
–	90 to 110	anti-PD-1 antibody 2 heavy chain G33C (antibody, human IgG4 S228P, kappa, V domains shown) VH: QVQLVESGGGVVQPGRSLRLDCKASGITFSNSCMHWVRQAPGKGLEWVAVIWYDGSKRYYADSVKGRFTISRDNSKNTLFLQMNSLRAEDTAVYYCATNDDYWGQGTLVTVSS VL: EIVLTQSPATLSLSPGERATLSCRASQSVSSYLAWYQQKPGQAPRLLIYDASNRATGIPARFSGSGSGTDFTLTISSLEPEDFAVYYCQQSSNWPRTFGQGTKVEIKR	–
–	90 to 110	anti-PD-1 antibody 2 heavy chain S56C (antibody, human IgG4 S228P, kappa, V domains shown) VH: QVQLVESGGGVVQPGRSLRLDCKASGITFSNSGMHWVRQAPGKGLEWVAVIWYDGCKRYYADSVKGRFTISRDNSKNTLFLQMNSLRAEDTAVYYCATNDDYWGQGTLVTVSS VL: EIVLTQSPATLSLSPGERATLSCRASQSVSSYLAWYQQKPGQAPRLLIYDASNRATGIPARFSGSGSGTDFTLTISSLEPEDFAVYYCQQSSNWPRTFGQGTKVEIKR	–
–	90 to 110	anti-PD-1 antibody 2 heavy chain S63C (antibody, human IgG4 S228P, kappa, V domains shown) VH: QVQLVESGGGVVQPGRSLRLDCKASGITFSNSGMHWVRQAPGKGLEWVAVIWYDGSKRYYADCVKGRFTISRDNSKNTLFLQMNSLRAEDTAVYYCATNDDYWGQGTLVTVSS VL: EIVLTQSPATLSLSPGERATLSCRASQSVSSYLAWYQQKPGQAPRLLIYDASNRATGIPARFSGSGSGTDFTLTISSLEPEDFAVYYCQQSSNWPRTFGQGTKVEIKR	–
–	90 to 110	anti-PD-1 antibody 2 heavy chain S30C (antibody, human IgG4 S228P, kappa, V domains shown) VH: QVQLVESGGGVVQPGRSLRLDCKASGITFCNSGMHWVRQAPGKGLEWVAVIWYDGSKRYYADSVKGRFTISRDNSKNTLFLQMNSLRAEDTAVYYCATNDDYWGQGTLVTVSS VL: EIVLTQSPATLSLSPGERATLSCRASQSVSSYLAWYQQKPGQAPRLLIYDASNRATGIPARFSGSGSGTDFTLTISSLEPEDFAVYYCQQSSNWPRTFGQGTKVEIKR	–
–	90 to 110	anti-PD-1 antibody 2 heavy chain G66C (antibody, human IgG4 S228P, kappa, V domains shown) VH: QVQLVESGGGVVQPGRSLRLDCKASGITFSNSGMHWVRQAPGKGLEWVAVIWYDGSKRYYADSVKCRFTISRDNSKNTLFLQMNSLRAEDTAVYYCATNDDYWGQGTLVTVSS VL: EIVLTQSPATLSLSPGERATLSCRASQSVSSYLAWYQQKPGQAPRLLIYDASNRATGIPARFSGSGSGTDFTLTISSLEPEDFAVYYCQQSSNWPRTFGQGTKVEIKR	–
–	90 to 110	anti-PD-1 antibody 2 heavy chain S32C (antibody, human IgG4 S228P, kappa, V domains shown) VH: QVQLVESGGGVVQPGRSLRLDCKASGITFSNCGMHWVRQAPGKGLEWVAVIWYDGSKRYYADSVKGRFTISRDNSKNTLFLQMNSLRAEDTAVYYCATNDDYWGQGTLVTVSS VL: EIVLTQSPATLSLSPGERATLSCRASQSVSSYLAWYQQKPGQAPRLLIYDASNRATGIPARFSGSGSGTDFTLTISSLEPEDFAVYYCQQSSNWPRTFGQGTKVEIKR	–
–	90 to 110	anti-PD-1 antibody 2 heavy chain G55C (antibody, human IgG4 S228P, kappa, V domains shown) VH: QVQLVESGGGVVQPGRSLRLDCKASGITFSNSGMHWVRQAPGKGLEWVAVIWYDCSKRYYADSVKGRFTISRDNSKNTLFLQMNSLRAEDTAVYYCATNDDYWGQGTLVTVSS VL: EIVLTQSPATLSLSPGERATLSCRASQSVSSYLAWYQQKPGQAPRLLIYDASNRATGIPARFSGSGSGTDFTLTISSLEPEDFAVYYCQQSSNWPRTFGQGTKVEIKR	–
